Reference: article PMC3962490, “The Yeast Ess1 Prolyl Isomerase Controls Swi6 and Whi5 Nuclear Localization” (G3: Genes|Genomes|Genetics, 2014)
Non-standard residues stand in square brackets, D forms with d. No end group written: not given here. *: point of attachment. Biotin = O=C1N[C@H]2[C@H](CS[C@H]2CCCCC(=O)*)N1; pS = N[C@@H](COP(=O)(O)O)C(=O)O

B1: Swi6-NLS-P peptide (peptide)
peptide: Biotin-GGSGGSRELG[pS]PLKK
notes: flexible linker ([Gly-Gly-Ser]2); By the printed limits the phosphoserine is Ser160; also called phosphorylated Swi6-NLS peptide; phospho-Swi6 peptide; source: synthetic peptide (NEOBioLab), HPLC purified >95%
B2: Swi6-NLS peptide (unphosphorylated) (peptide)
peptide: Biotin-GGSGGSRELGSPLKK
notes: flexible linker ([Gly-Gly-Ser]2); source: synthetic peptide (NEOBioLab), HPLC purified >95%
B3: Recombinant S. cerevisiae Ess1 protein (enzyme, UniProt P22696 1-170, looked up)
chain: MPSDVASRTGLPTPWTVRYSKSKKREYFFNPETKHSQWEEPEGTNKDQLHKHLRDHPVRVRCLHILIKHKDSRRPASHRSENITISKQDATDELKTLITRLDDDSKTNSFEALAKERSDCSSYKRGGDLGWFGRGEMQPSFEDAAFQLKVGEVSDIVESGSGVHVIKRVG
notes: Ess1 peptidyl prolyl cis/trans isomerase, S. cerevisiae; also called purified Ess1 protein; Ess1 prolyl isomerase; source: Escherichia coli, purified as described (Li et al. 2005)
B4: Whi5-NLS-P peptide (peptide)
peptide: Biotin-GGSGGTP[pS]PP[pS]PPGI
notes: flexible linker; By the printed limits the phosphoserines are Ser59 and Ser62; also called phosphorylated Whi5-NLS peptide; Whi5 phospho-peptide; source: synthetic peptide (NEOBioLab), HPLC purified >95%
B5: Whi5-NLS peptide (unphosphorylated) (peptide)
peptide: Biotin-GGSGGTPSPPSPPGI
notes: flexible linker; source: synthetic peptide (NEOBioLab), HPLC purified >95%
B6: Whi5-NES-P peptide (peptide)
peptide: Biotin-GGSGGFL[pS]P[pS]PRLR[pS]PPT
notes: flexible linker; Whi5, S. cerevisiae, residues 152-164 (portion of the nuclear export signal); By the printed limits the phosphoserines are Ser154, Ser156 and Ser161; also called phosphorylated Whi5-NES peptide; Whi5 phospho-peptide; source: synthetic peptide (NEOBioLab), HPLC purified >95%
B7: Whi5-NES peptide (unphosphorylated) (peptide)
peptide: Biotin-GGSGGFLSPSPRLRSPPT
notes: flexible linker; Whi5, S. cerevisiae, residues 152-164 (portion of the nuclear export signal); source: synthetic peptide (NEOBioLab), HPLC purified >95%
B8: CTD-P peptide (phosphorylated peptide corresponding to the CTD of RNAPII) (peptide)
peptide: Biotin-GGSGGSYSPT[pS]PSYS
notes: flexible linker ([Gly-Gly-Ser]2); based on the consensus heptapeptide repeat in the carboxy-terminal domain (CTD) of Rpb1, largest subunit of RNA polymerase II; The phosphoserine is Ser5 of the heptad YSPTSPS; also called phospho-CTD peptide; phosphorylated CTD peptide; source: synthetic peptide (NEOBioLab), HPLC purified >95%
B9: CTD peptide (unphosphorylated) (peptide)
peptide: Biotin-GGSGGSYSPTSPSYS
notes: flexible linker ([Gly-Gly-Ser]2); based on the consensus heptapeptide repeat in the carboxy-terminal domain (CTD) of Rpb1, largest subunit of RNA polymerase II; also called unphosphorylated CTD peptide; unphosphorylated CTD control peptide; source: synthetic peptide (NEOBioLab), HPLC purified >95%

Tests used:
Assay in all cases: BLI; Octet RED, 24°; N-terminally biotinylated peptides immobilised on streptavidin biosensors; Ess1 in solution (3, 10, 30 μM); 20 mM Tris-HCl pH 8.0, 1 mg/mL BSA; no-peptide sensor subtracted; apparent dissociation constants (Kapp) from kinetic and equilibrium data, considering only the predominant faster-dissociating signal; for unphosphorylated peptides Kapp estimated from the signal at 30 μM Ess1
Details in all cases: both partners purified
[1] = molecular target: B3
[2] = molecular target: B3; remark: listed apart in the source
Whi5-NES-P peptide = molecular target: B6
[3] = molecular target: B8
Whi5-NLS-P peptide = molecular target: B4
Swi6-NLS-P peptide = molecular target: B1

For B1, the koff [1] was 0.254 s⁻¹ and the Kd [2] was 8.67 µM.

Binder B2 has a Kd [2] of over 100 µM.

For B3, the “KappEq (equilibrium)” value (Whi5-NES-P peptide) was 1.13 ± 0.18 µM, the “KappK (kinetic)” value (Whi5-NES-P peptide) was 3.25 ± 0.7 µM and the “KappEq (equilibrium)” value [3] was 1.65 ± 0.06 µM. For the same binder, the “KappK (kinetic)” value [3] was 2.58 ± 0.65 µM, the “KappEq (equilibrium)” value (Whi5-NLS-P peptide) was 0.48 ± 0.46 µM and the “KappK (kinetic)” value (Whi5-NLS-P peptide) was 2.87 ± 0.82 µM. The “KappEq (equilibrium)” value (Swi6-NLS-P peptide) was 10.1 ± 5.1 µM and the “KappK (kinetic)” value (Swi6-NLS-P peptide) was 7.25 ± 4.63 µM.

Work on B4 yielded a Kd [2] of 1.67 µM.

Binder B5 has a Kd [2] of over 25 µM.

B6 was tested, and the Kd [2] was 2.19 µM.

For B7, the Kd [2] was over 1500 µM.

B8 gave a Kd [2] of 2.12 µM.

B9 showed a Kd [2] of over 300 µM.
